Assay results: US20260216242A1, “ALPP-SPECIFIC VARIANT ANTIGEN BINDING MOLECULES” (ALMAC DISCOVERY LIMITED, priority 2022, published 2026)

T1: ALPI His homodimer (Homo sapiens, UniProt P09923)
T1 sequence (P09923 with tags, fused parts or gaps): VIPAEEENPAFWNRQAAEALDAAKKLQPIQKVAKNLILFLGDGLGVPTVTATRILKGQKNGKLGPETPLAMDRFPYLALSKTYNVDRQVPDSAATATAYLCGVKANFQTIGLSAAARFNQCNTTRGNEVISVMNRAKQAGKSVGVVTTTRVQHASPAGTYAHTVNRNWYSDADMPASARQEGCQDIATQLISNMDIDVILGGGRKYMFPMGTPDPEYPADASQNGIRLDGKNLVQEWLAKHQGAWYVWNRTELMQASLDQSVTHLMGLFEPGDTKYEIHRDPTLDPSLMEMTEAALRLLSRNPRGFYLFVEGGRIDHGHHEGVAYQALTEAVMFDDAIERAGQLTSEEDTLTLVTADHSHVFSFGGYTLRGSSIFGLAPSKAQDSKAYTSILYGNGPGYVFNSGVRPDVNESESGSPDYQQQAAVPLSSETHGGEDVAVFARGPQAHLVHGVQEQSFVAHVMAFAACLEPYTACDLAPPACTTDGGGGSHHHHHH


Experiments:
[1] = molecular target: T1, ALPI His homodimer; assay: ELISA binding to ALPI; conditions: 500 ng purified VHH
Procedure: ELISA was used to test the binding and specificity of the VHHs. ALPP CysHis (SEQ ID NO: 263), ALPI His homodimer (SEQ ID NO: 264) or BSA (Thermo Fisher) were coated onto plates and 500 ng of each purified VHH added. Anti-Llama—HRP antibody was used for detection.

[2] = molecular target: T2, ALPP (Homo sapiens, UniProt P05187); assay: BLI binding kinetics, human ALPP immobilised on AR2G sensors (KD / KD apparent); conditions: for hALPP Ka / hALPP Kd: VHH domains
Procedure: Binding kinetics were determined using the Biolayer Interferometry (BLI) Octet K2 system (Sartorius). Human ALPP, ALPPL2, ALPL (each fused with a cysteine stabilised leucine zipper) and ALPI, (SEQ ID NO: 265, SEQ ID NO: 266 and SEQ ID NO: 267 and SEQ ID NO: 264 respectively) were immobilised in sodium acetate pH5 buffer to AR2G sensors using amine coupling. All assays were conducted in PBS with a plate temperature of 25° C. Ka (M^−1s^−1), Kd (s^−1) and KD (nM) values were determined using Octet Data Analysis High Throughput software (ForteBio) for Biolayer Interferometry.
(§1) Binding kinetics were determined using the Biolayer Interferometry (BLI) Octet K2 or R4 system (Sartorius). Human ALPP, ALPPL2 and ALPL all fused with a disulphide stabilised leucine zipper (SEQ ID NO: 265, SEQ ID NO: 266, and SEQ ID NO: 267) and ALPI His (SEQ ID NO: 264) were used in BLI experiments. For KD apparent measurements, the ALPP proteins were immobilised in sodium acetate pH5 buffer to AR2G sensors using amine coupling. To measure 1:1 interactions, AHC biosensors were used to immobilise Fc-fused proteins. All assays were conducted in HBS-EP with a plate temperature of 25° C. Ka (M^−1s^−1), Kd (s^−1) and KD (nM) values were determined using Octet Data Analysis High Throughput software (Sartorius) for Biolayer Interferometry.
as §1, with “NO:264)” for “NO: 264)”

[3] = Thermal stability (Protein Thermal Shift assay); format: physicochemical; conditions: VHH domains, first derivative analysis
Procedure: Thermal stability assays used Applied Biosystems StepOne Real Time PCR system with the Protein Thermal Shift™ dye kit (Thermo Fisher). The assay mix was set up so that the protein was at a final concentration of 20 µM in 20 μL. 5 μL of Thermal Shift™ buffer was added alongside 2.5 μL 8× Thermal Shift™ Dye. Assays were run using the StepOne software and data analysed using Protein Thermal Shift™ software. All data are from first derivative analysis.

[4] = molecular target: T2, ALPP; assay: Epitope binning by BLI competition assay; format: binding; conditions: BLI competition on immobilised ALPP
Procedure: To determine epitope cross reactivity BLI competition assays were conducted. AR2G sensors were used and ALPP immobilised as above. ALPP sensors were then dipped into a well containing a saturating concentration of the initial binder for ten minutes to get an association curve. The sensor was then dipped into a well containing the same concentration of initial binder plus 20 nM of a secondary binding.
An increase in the association curve was indicative that the second VHH bound to a distinct epitope from the initial binder. Monomers with identical CDR3s were grouped as likely to be in the same epitope bin and only one from each group used in the epitope binning experiment.

T2 sequence (P05187 with tags, fused parts or gaps): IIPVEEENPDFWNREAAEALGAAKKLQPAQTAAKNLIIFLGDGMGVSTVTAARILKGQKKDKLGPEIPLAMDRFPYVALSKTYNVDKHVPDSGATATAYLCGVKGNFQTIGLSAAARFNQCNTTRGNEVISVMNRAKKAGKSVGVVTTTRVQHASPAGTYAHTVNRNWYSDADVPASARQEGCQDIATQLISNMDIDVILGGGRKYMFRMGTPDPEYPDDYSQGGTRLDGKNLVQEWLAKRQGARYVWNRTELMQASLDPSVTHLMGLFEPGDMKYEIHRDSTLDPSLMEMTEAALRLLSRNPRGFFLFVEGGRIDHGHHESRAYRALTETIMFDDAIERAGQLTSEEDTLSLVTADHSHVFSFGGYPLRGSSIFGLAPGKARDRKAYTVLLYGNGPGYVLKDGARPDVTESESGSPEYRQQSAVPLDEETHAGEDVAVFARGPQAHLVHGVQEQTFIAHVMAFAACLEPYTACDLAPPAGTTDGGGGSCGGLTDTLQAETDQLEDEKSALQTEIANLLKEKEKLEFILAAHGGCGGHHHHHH

Molecule	ELISA hALPI [1]	hALPP Ka [2] [M⁻¹ s⁻¹]	hALPP Kd [2] [s⁻¹]	Tm [3] [°C]	epitope bin [4]	Kd ([2]; VHH domains (His-tagged monomers), PBS, 25° C., read-out: hALPP KD) [pM]
A08: ALPP targeting VHH domain, SEQ ID NO: 18 (protein) VHH: QVQLVESGGGLVQAGESLRLACAASGTIFSGNAVGWYRQAPEKQREWVSSITDYGDTDYAEAVKGRFTISRDNAKNTVYLQMNSLKPEDTAVYYCYVYQRGESEEYWGQGTKVTVSS	No Binding	429000	0.000012	71.4	–	–
F12: ALPP targeting VHH domain, SEQ ID NO: 37 (protein) VHH: QVQLVESGGGLVEAGGSLRLSCAVSGSALSDYNIGWFRQAPGKEREFVARKTWDGSSTKYDDSVKGRFTVSIDNAKNTAYLQMNSLKTEDTAVYYCAAGRYSRVRGWEYDYWGQRTQVTVSS	No Binding	38600	<1e-07	62.9	–	–
B09: ALPP targeting VHH domain, SEQ ID NO: 21 (protein) VHH: QVQLVESGGGSVQAGGSLRLSCAASGPSLSHYAMGWFRQAPGKEREFVAGISWGGGRTSYTDSVKGRFTISRDNAKNTVYLQMNNLKPEDTGVYYCAGRYGRGRNVEYEYDYWGQGTQVTVSS	No Binding	237000	<1e-07	77.1	one	–
C06: ALPP targeting VHH domain, SEQ ID NO: 24 (protein) VHH: QVQLVESGGGLVQPGGSLRVSCAASGPSLSNYAMGWFRQAPGKEREFVAGISWGGGRTSYTDSVKGRFTISRDNAKNTVYLQMNNLKPEDTGVYYCAGRYGRGRNVEYEYDYWGQGTQVTVSS	No Binding	368000	<1e-07	71.6	–	–
E11: ALPP targeting VHH domain, SEQ ID NO: 32 (protein) VHH: QVQLVESGGGSVQAGGSLRLSCAASGPSLSNFAMGWFRQPPGKEREFVAGISWGGGRTSYTDSVKGRFTISRDNAKNTVYLQMNNLKPEDTGVYYCAGRYGRGRNVEYEYDYWGQGTQVTVSS	No Binding	149000	0.0000018	78.0	–	–
E12: ALPP targeting VHH domain, SEQ ID NO: 33 (protein) VHH: QVQLVESGGGSVQAGGSLRLSCAASGPSISNFAMGWFRQAPGKEREFVAGISWGGGRTNYLDSVKGRFTISRDNAKNMVHLQMNSLKPEDTTVYYCAGRYGRGRDVEYEYDYWGQGTQVTVSS	No Binding	39200	0.000028	55.5	–	–
D11: ALPP targeting VHH domain, SEQ ID NO: 29 (protein) VHH: QVQLVESGGGSVQAGGSLRLSCAASGPSLSNYAMGWFRQAPGKEREFVAGISWGGGRTSYTDSVKGRFTISRDNAKNTVYLQMNNLKPEDTGVYYCAGRYGRGRNVEYEYDYWGQGTMVTVSS	No Binding	97700	<1e-07	78.1	–	–
A12: ALPP targeting VHH domain, SEQ ID NO: 19 (protein) VHH: QVHLVECGGGSVQAGGFLRLSCAASGPSLSNYAMGRFRQAPGKEREFVAGISWGGGRTSYTDSVKGRFTISRDNAKNTVYLQMNNLEPEDTGVYYCAGRYGRGRNVEYEYDYWGQGTKVTVSS	No Binding	360000	<1e-07	76.3	–	< 10
H09: ALPP targeting VHH domain, SEQ ID NO: 39 (protein) VHH: QVQLVESGGGSVQTGGSLRLSCAASGPSLSNYAMGWFRQAPGKEREFVAGISWGGGRTNYLDSVKGRFTISRDNAKNTMYLQMNSLKPEDTAVYYCAGRYGRGRDVEYEYDYWGQGTQVTVSS	No Binding	58600	<1e-07	68.8	–	–
F09: ALPP targeting VHH domain, SEQ ID NO: 36 (protein) VHH: QVQLVESGGGSVQAGGSLRLSCAASGPSLSNYAMGWFRQAPGKEREFVAGISWGGGRTSCTDSVKGRFTISRDNAKNTVYLQMNNLKPEDTGVYYCAGRYGRGRNVEYEYDYWGQGTQVTVSS	No Binding	40600	<1e-07	72.1	–	–
D08: ALPP targeting VHH domain, SEQ ID NO: 27 (protein) VHH: QVHLVESGGGSVQAGGSLRLSCAASGPSLSNYAMGWFRQAPGKEREFVAGISWGGGRTSYTDSVKGRFTISRDNAKNTVYLQMNNLKPEDTGVYYCAGRYGRGRNVEYEYDYWGQGTKVTVSS	No Binding	175000	<1e-07	64.9	–	–
H10: ALPP targeting VHH domain, SEQ ID NO: 40 (protein) VHH: QVQLVESGGGSVQTGGSLRLSCAASGPSLSNYAMGWFRQAPGKEREFVAGISWGGGRTNYLDSVKGRFTISRDNAKNTMYLQMNSLKPEDAAVYYCAGRYGRGRDVEYEYDYWGQGTQVTVSS	No Binding	45900	0.0000085	64.9	–	–
C05: ALPP targeting VHH domain, SEQ ID NO: 23 (protein) VHH: QVQLVESGGGLVQAGGSLRLSCAASRRSFSEYAMGWFRQAPGKEREFVAAIGWSGVIEYADSVKGRFTISRDNAKDTVYLQMNSLKPEDTAVYYCAAGLGIRVVSQTPAYWGQGTQVTVSS	No Binding	394000	<1e-07	80.6	–	–
